Experimental data reported in PMC7584396.

Target: prefusion conformation-stabilized SARS-CoV-2 spike ectodomain (S2P_(ecto)) with AviTag and 8x-His tag (SARS-CoV-2) (UniProt P0DTC2)
Assay: ELISA

COV2-2130 (human mAb, recombinant IgG1) (antibody)
percent inhibition of hACE2 binding to S2P (ecto) at 500 ng/mL: 100%
